The values below come from patent publication US7029700B2, “Micronized freeze-dried particles” (Brown University Research Foundation, priority 2000, dated 2006).

A short description of series [1]: Oral GH delivery, serum hGH by ELISA. The class given is in vivo. Particulars: rats, single oral dose by gavage in corn oil. As for the experimental part:
CD male rats (250 to 300 g) were obtained from Charles River Laboratories. Group 1 was fed 1.24 mg of stock GH emulsified in 1 ml of USP corn oil; Group 2 was fed 50 mg of PIN microspheres (2B43099-2.47% Zn-GH in PLGA) in 1 ml of corn oil; Group 3 was fed 50 mg of PIN microspheres (2B51799 - 2.47% Stock GH, 16% FeO in PLGA) in 1 ml of corn oil. Microspheres were suspended in corn oil by vortexing followed by brief (5 s) probe sonication. Stock GH was similarly emulsified in corn oil by vortexing and probe sonication. Animals were fasted overnight, briefly anesthetized with methoxyfluorane, and formulations fed via gavage with an 18-G stainless steel feeding tube and serum from all animals obtained according to the following schedule: −1 hr (pre-feeding control), 0.5 hr, 1 hr, 2 hr, 3 hr, 4 hr, 6 hr, 24 hr, 48 hr, and 72 hr post-feeding. Serum samples obtained via tail bleeding were analyzed for hGH using the hGH specific ELISA (DSL Inc, Webster. Tex.) according to manufacturer's protocols.

A short description of series [2]: hGH aggregation during FLM, SEC-HPLC. It is filed as physicochemical. The source says:
This frozen emulsion was then lyophilized for 48 hrs to remove both the aqueous and organic solvent.
For orientation: Size exclusion chromatography separates by hydrodynamic size, large species first.

On to “stock GH: 1.24 mg of stock GH emulsified in 1 ml of USP corn oil”, for which the “serum hGH Cmax” value in series [1] worked out at 3.37 ± 2.14 ng/mL.
Turning to “hGH: Stock human growth hormone (20 mg/ml) incorporated into PLGA 50:50 by FLM under varied conditions”, the “aggregation of best formulation combination” value in series [2] (ethyl acetate, stock GH containing 0.2% F127, agitation time 15 s) is recorded as 0.7%. Moreover, the “Percent Aggregation (SEC-HPLC)” value in series [2] (ethyl acetate, 15 s vortex, 0.05% F127 + T20, 24 hr) is listed as 1.9%; in series [2] (ethyl acetate, 15 s vortex, 0.2% F127 + T20, 1 hr) it was 1.0/1.0%; in series [2] (ethyl acetate, 15 s vortex, 0.2% F127 + T20, 24 hr), 1.0/1.0%; in series [2] (ethyl acetate, 15 s vortex, 0.2% F127, 1 hr), 0.7/0.7%; in series [2] (ethyl acetate, 15 s vortex, 0.2% F127, 24 hr) it was 0.7/0.7%; in series [2] (ethyl acetate, 60 s vortex, 0.05% F127 + T20, 1 hr) it was 0.9%. Further, the “Percent Aggregation (SEC-HPLC)” value in series [2] (ethyl acetate, 60 s vortex, 0.05% F127 + T20, 24 hr) is 1.0%; in series [2] (ethyl acetate, 60 s vortex, 0.05% F127, 24 hr) it was 2.0%; in series [2] (ethyl acetate, 60 s vortex, 0.2% F127 + T20, 1 hr), 1.1/1.1%; in series [2] (ethyl acetate, 60 s vortex, 0.2% F127 + T20, 24 hr), 1.1/1.1%; in series [2] (ethyl acetate, 60 s vortex, 0.2% F127, 1 hr), 1.5%; in series [2] (ethyl acetate, 60 s vortex, 0.2% F127, 24 hr), 1.7%. Also, the “Percent Aggregation (SEC-HPLC)” value was found to be 2.2% in series [2] (methylene chloride, 15 s vortex, 0.05% F127 + T20, 1 hr); 2.7% in series [2] (methylene chloride, 15 s vortex, 0.05% F127 + T20, 24 hr); 2.0% in series [2] (methylene chloride, 15 s vortex, 0.05% F127, 1 hr); 4.5% in series [2] (methylene chloride, 15 s vortex, 0.05% F127, 24 hr); 3.7% in series [2] (methylene chloride, 15 s vortex, 0.2% F127 + T20, 1 hr); 8.8% in series [2] (methylene chloride, 15 s vortex, 0.2% F127 + T20, 24 hr). In addition, the “Percent Aggregation (SEC-HPLC)” value came to 2.4% in series [2] (methylene chloride, 15 s vortex, 0.2% F127, 1 hr); 5.0% in series [2] (methylene chloride, 15 s vortex, 0.2% F127, 24 hr); 4.4% in series [2] (methylene chloride, 60 s vortex, 0.05% F127 + T20, 1 hr); 11.4% in series [2] (methylene chloride, 60 s vortex, 0.05% F127 + T20, 24 hr); 4.8% in series [2] (methylene chloride, 60 s vortex, 0.05% F127, 24 hr); 10.2% in series [2] (methylene chloride, 60 s vortex, 0.2% F127 + T20, 1 hr). For the same substance, the “Percent Aggregation (SEC-HPLC)” value in series [2] (methylene chloride, 60 s vortex, 0.2% F127 + T20, 24 hr) was 12.9%; in series [2] (methylene chloride, 60 s vortex, 0.2% F127, 1 hr), 4.2%; in series [2] (methylene chloride, 60 s vortex, 0.2% F127, 24 hr), 7.0%.
